“And” between values parts separate entries of the source, which are not always exact repeats. Equal values may be shown once.
B1: Arginase, O25949 (parent)
chain: MILVGLEAELGASKRGTDKGVRRLREALSATHGDVIKGMQTITQERCVLYKEFRYAKNFEDYYLFCKENLIPCMKEVFEKKEFPLILSSEHANMFGIFQAFRSVHKDKKIGILYLDAHADIHTAYDSDSKHIHGMPLGMVLNRVRSGFNRMSESEEKAWQKLCSLGLEKGGLEIDPKCLVYFGVRSTEQSERDVIRELQIPLFSVDAIRENMQEVVQKTKESLKAVDIIYLSLDLDIMDGKLFTSTGVRENNGLSFDELKQLLGLLLESFKDRLKAVEVTEYNPTVSIKHNNEEEKQVLEILDLIINSCKIKDKKHSFARSY

Variants of: B1
Conditions: Helicobacter pylori (strain ATCC 700392 / 26695); pH 7.2; Thermal; CD; Tris-HCl 20 mM; transition: 2; reversible: yes; structure 4G3H; whole UniProt chain shown

Row | Variant | Tm | change of melting temperature, mutant - wild type (higher = more stable)
1 | D126A | 61 °C | -7 °C
2 | L162A |  | -2.7 °C and -7 °C
3 | E153A | 69.8 °C | -0.2 °C
4 | S164A | 70.7 °C | 0.7 °C
5 | Q160A | 64.4 °C and 62.8 °C | -5.6 °C and -5.2 °C
6 | K157A | 57.7 °C | -10.3 °C
7 | W159A | 51 °C | -17 °C
8 | W159F | 64.8 °C and 59.9 °C | -5.2 °C and -8.1 °C
9 | E156A | 59 °C | -9 °C

From FireProtDB (doi:10.1021/bi301421v)
